In US20030157712A1, “Methods for determining cell responses through EphB receptors” (priority 1997, published 2003):

Experiments:
EphB1 = biological target: T1, EphB1 (Homo sapiens, UniProt P54762); assay: EphB1 immunoprecipitation and phosphotyrosine immunoblot; format: cell-based; details: endothelial cells on adsorbed ligand
T1 construct: Ligand stimulation and immunoprecipitation of endogenous EphB receptors; endogenous in cells; host or cells: HRMEC (human); P19 (murine teratocarcinoma) in part of the results
T1 sequence (P54762 18-984): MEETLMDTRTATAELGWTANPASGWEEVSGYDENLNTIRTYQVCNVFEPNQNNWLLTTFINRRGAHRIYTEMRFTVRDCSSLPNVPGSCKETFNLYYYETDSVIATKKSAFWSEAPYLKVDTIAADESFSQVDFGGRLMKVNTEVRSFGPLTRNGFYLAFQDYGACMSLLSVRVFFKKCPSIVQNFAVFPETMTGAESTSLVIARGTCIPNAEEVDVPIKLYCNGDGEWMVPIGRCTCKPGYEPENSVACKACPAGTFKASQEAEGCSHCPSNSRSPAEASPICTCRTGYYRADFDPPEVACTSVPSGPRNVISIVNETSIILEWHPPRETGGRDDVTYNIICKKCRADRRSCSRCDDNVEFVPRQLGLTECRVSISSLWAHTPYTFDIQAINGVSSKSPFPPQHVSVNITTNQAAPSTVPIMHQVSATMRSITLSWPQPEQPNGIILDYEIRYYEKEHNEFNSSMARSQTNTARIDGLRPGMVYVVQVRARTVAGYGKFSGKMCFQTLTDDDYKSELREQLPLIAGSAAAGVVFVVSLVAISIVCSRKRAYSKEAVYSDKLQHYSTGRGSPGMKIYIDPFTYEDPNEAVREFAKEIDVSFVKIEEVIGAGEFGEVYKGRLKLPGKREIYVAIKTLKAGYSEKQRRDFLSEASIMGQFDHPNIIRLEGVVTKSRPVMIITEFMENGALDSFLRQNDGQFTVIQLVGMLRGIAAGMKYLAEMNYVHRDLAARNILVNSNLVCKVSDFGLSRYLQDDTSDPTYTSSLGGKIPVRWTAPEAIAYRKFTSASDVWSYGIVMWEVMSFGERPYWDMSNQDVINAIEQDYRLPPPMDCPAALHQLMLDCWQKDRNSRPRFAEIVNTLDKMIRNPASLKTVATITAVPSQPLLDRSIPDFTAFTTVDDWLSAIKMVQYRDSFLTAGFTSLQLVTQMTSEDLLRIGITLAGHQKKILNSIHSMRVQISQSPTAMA

HRMEC [1] = assay: Endothelial assembly into capillary-like structures (HRMEC); format: cell-based, human; details: HRMEC on Matrigel, two dimensional in vitro assay, 8 h
Procedure: Endothelial assembly into capillary-like structures. Twelve well plates (Falcon) were coated with thin layers of Matrigel. HRMEC were plated at a density of 4×10^4 cells/well in DME containing 1% fetal bovine serum. Indicated agonists, control peptides, alone, or in combination with the EphB1/Fc antagonist (1000 ng ml^−1) (FIG. 5) were added at the time of plating. Cells were incubated at 37° C. for 8 h and photographed using phase microscopy (magnification 100×) (Diaphot-TMD, Nikon).

HRMEC [2] = assay: Cell adhesion assay (HRMEC); format: cell-based, human; details: 90 min after plating
Procedure: (§1) Cell adhesion assay. Six well plates (Falcon) were coated with thin layers of Matrigel or with 0.5 μg cm^2 fibronectin (29). Growth medium was replaced 48 h before harvest with binding medium, either DMEM (HRMEC) or ∝-MEM (P19) containing 1% bovine albumin. Cells were recovered by trypsinization (HRMEC) or vigorous tituration (P19) and washed three times with binding medium and plated at 1×10^5 cells per well. Ligands were added coincident with plating at concentrations indicated above. After 90 min, unattached cells were dislodged by applying 4 brisk slaps of the plate on a horizontal surface, and the attached cell layer was carefully washed once with PBS containing calcium and magnesium to collect the remaining unattached cells. Attached cells were collected after incubation in Dispase (Collaborative Biomedical Products). Separate fractions were recovered by centrifugation, washed once and trypan blue excluding cells counted visually using a hemocytomer. The ratio of attached to total number of cells recovered were calculated for each of three wells. Data are expressed as mean+/−SEM and are representative of three independent experiments.

P19 cells = assay: Cell adhesion assay (P19); format: cell-based, murine; details: fibronectin coated dishes, 90 min
Procedure: as §1

[3] = tested on: LMW-PTP recruitment to EphB1 and EphB2 complexes; assay: LMW-PTP recruitment to EphB1 and EphB2 complexes (co-immunoprecipitation, immunoblot); format: cell-based, human
Procedure: (§2) Ligand stimulation and immunoprecipitation of endogenous EphB receptors. Primary HRMEC were used at passages 3-6, as described (12). P19 cells were cultured as recommended (ATCC, Rockville, Md.). Ninety min prior to ligand stimulation, cells (2×10^5cells/60 mm dish) were plated on Matrigel-(Collaborative Biomedical Products, Becton Dickinson, Bedford, Mass., as recommended) or fibronectin-coated (29) dishes. Ligand (ephrin-B1/Fc) or control (ORF/Fc) (30) multimers were generated by preincubation with anti-Fc at a fixed ratio of 0.1× the indicated concentrations of Fc fusion proteins [50 ng ml^−1 anti-Fc for 500 ng ml^−1 Fc fusion protein]. If not otherwise indicated, Fc fusion proteins (ephrinB1/Fc or ORF/Fc) were used at 500 ng ml^−1 in the absence or presence of preclustering anti-Fc at 50 ng ml^−1. Cells were incubated with agonists at 37° C. for 10 min, or as described in the figure legends. […] Precipitated proteins were analyzed by immunoblot (15).
(§3) It was reasoned that alternative signaling responses mediated through EphB receptors might reflect differential association of additional receptor signaling complex components. […] Accordingly, EphB1 immunoprecipitates were analyzed for LMW-PTP immunoreactivity (11,17).

[4] = tested on: Grb2 and Grb10 and Nck recruitment to EphB1 complexes; assay: Recruitment of SH2-containing adapter proteins to EphB1 complexes; format: cell-based
Procedure: as §2, §3

B1: ephrin-B1/Fc dimers: disulfide-linked immunoglobulin Fc fusion form of ephrin-B1 (protein)
chain: LAKNLEPVSWSSLNPKFLSGKGLVIYPKIGDKLDIICPRAEAGRPYEYYKLYLVRPEQAAACSTVLDPNVLVTCNRPEQEIRFTIKFQEFSPNYMGLEFKKHHDYYITSTSNGSLEGLENREGGVCRTRTMKIIMKVGQDPNAVTPEQLTTSRPSKEADNTVKMATQAPGSRGSLGDSDGKHETVNQEEKSGPGASGGSSGDPDGFFNSK
modifications: left off: a dimerising Fc or GST
EphB1 receptor activation at densities greater than 300 ng/cm^2 (EphB1): did not show a decrement | adsorption densities stimulating EphB1 receptor activation (EphB1; phosphotyrosine immunoblot): greater than 100 ng/cm^2 | endothelial capillary-like assembly (HRMEC [1]): did not | HRMEC attachment to Matrigel- and fibronectin-coated surfaces (HRMEC [2]): did not | P19 attachment to fibronectin (P19 cells): modest effect to decrease | recruitment of 18 kDa tyrosine phosphoprotein (LMW-PTP) to EphB1 and EphB2 immunoprecipitates [3]: not | recruitment of Grb2, Grb10 and Nck to EphB1 complexes, dimeric vs multimeric ligand [4]: did not differ
